The conditions of the series: Homo sapiens, pH 7.5, Tris-HCl 20mM; for unfolding free energy / ddG of mutation (higher = less stable) / denaturant m value: 10 °C, Urea; for Tm: Thermal.
[1] abbreviates: CD, transition: 2, structure 1XWS.

Where “and” joins values, the source holds several entries; their conditions need not be identical. Identical values can stand only once.

Sequence of Serine/threonine-protein kinase pim-1 Y53H, P11309 (P11309 whole entry Y53H): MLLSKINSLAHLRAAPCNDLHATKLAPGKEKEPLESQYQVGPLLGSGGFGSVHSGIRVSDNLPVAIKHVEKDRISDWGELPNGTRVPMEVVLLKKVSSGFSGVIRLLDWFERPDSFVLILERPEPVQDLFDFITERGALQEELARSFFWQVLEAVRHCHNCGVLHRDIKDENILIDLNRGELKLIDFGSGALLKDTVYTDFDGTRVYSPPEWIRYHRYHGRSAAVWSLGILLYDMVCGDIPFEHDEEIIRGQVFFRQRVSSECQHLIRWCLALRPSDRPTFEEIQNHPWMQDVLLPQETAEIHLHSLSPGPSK
Sequence of Serine/threonine-protein kinase pim-1 wild type, P11309 (P11309 whole entry): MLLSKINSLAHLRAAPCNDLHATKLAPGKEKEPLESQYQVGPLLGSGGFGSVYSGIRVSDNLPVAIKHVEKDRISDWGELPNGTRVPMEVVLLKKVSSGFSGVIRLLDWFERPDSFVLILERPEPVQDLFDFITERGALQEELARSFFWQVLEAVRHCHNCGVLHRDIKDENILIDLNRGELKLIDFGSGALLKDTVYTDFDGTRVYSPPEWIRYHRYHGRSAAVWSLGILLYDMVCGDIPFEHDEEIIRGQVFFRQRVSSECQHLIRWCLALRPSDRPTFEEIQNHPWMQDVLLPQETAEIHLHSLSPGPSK
Sequence of Serine/threonine-protein kinase pim-1 E124Q, P11309 (P11309 whole entry E124Q): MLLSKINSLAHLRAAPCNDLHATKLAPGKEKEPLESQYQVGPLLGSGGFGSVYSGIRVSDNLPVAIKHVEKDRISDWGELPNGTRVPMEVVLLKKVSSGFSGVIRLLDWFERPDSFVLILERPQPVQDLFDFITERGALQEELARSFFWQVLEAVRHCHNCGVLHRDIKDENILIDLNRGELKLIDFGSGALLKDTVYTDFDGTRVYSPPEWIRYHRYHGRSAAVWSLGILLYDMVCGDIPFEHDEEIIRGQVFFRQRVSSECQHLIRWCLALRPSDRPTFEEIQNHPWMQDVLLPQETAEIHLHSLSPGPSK
Sequence of Serine/threonine-protein kinase pim-1 E135K, P11309 (P11309 whole entry E135K): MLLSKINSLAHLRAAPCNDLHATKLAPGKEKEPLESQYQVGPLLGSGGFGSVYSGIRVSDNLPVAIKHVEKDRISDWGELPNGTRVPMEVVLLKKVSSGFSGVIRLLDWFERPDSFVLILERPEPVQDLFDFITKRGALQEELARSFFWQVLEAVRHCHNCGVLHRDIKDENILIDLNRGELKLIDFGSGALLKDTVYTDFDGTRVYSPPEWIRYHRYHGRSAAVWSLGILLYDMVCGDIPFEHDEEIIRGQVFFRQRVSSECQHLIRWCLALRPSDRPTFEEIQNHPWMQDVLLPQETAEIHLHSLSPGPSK
Sequence of Serine/threonine-protein kinase pim-1 E142D, P11309 (P11309 whole entry E142D): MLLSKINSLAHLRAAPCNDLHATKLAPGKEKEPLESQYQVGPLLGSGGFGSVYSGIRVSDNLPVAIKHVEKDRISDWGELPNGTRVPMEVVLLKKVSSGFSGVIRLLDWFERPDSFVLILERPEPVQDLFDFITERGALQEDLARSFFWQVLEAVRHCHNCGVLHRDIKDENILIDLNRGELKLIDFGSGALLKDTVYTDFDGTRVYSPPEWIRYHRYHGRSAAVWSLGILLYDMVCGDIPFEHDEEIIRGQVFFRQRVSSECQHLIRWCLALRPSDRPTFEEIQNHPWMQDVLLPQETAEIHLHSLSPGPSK

For “Serine/threonine-protein kinase pim-1 E124Q, P11309”, the unfolding free energy (Fluorescence, transition: 4, structure 1XWS) was 3.46 kcal/mol and 3.08 kcal/mol and 5.22 kcal/mol. Further, the midpoint of thermal melting (Tm) under setting [1] stood at 44 °C.
Consider “Serine/threonine-protein kinase pim-1 E135K, P11309”, for which, under setting [1], the “ddG of mutation (higher = less stable)” value amounted to 4.59 kcal/mol, the denaturant m value was determined as 0.43 kcal/mol/M, the unfolding free energy was determined as 1.82 kcal/mol and the Tm turned out to be 40.5 °C.
Regarding “Serine/threonine-protein kinase pim-1 E142D, P11309”, under setting [1], the “ddG of mutation (higher = less stable)” value is 3.22 kcal/mol, the denaturant m value was 0.69 kcal/mol/M, the unfolding free energy came out at 3.19 kcal/mol and the Tm amounted to 40 °C.
As for “Serine/threonine-protein kinase pim-1 Y53H, P11309”, under setting [1], the “ddG of mutation (higher = less stable)” value came to 3.3 kcal/mol, the denaturant m value was found to be 0.62 kcal/mol/M and the unfolding free energy was found to be 3.11 kcal/mol.
In the case of “Serine/threonine-protein kinase pim-1 wild type, P11309”, under “CD, transition: 2”, the denaturant m value amounted to 1.2 kcal/mol/M and the unfolding free energy is 6.41 kcal/mol. Besides, for the setting “CD, transition: 3”, the Tm was 40.5 °C.

Source of the values: FireProtDB (doi:10.1371/journal.pone.0064824).
